Source: article PMC9020740

What follows are substances tested against Canine parvovirus nonstructural protein 2 (NS2), made in infection (canine parvovirus (CPV) type 2) (assay: proximity ligation; PLA (Duolink In Situ Orange Mouse/Rabbit) in wt CPV-infected NLFK cells, fixed 24 h after infection; anti-NS2 antibody paired with an antibody against the host protein; nuclear PLA foci counted from 3D confocal data, n = 15).
For “MDC1 of NLFK (feline kidney) cells (natural protein)”, the PLA foci/nucleus (PLA foci/nucleus) was 22. “SMARCA5 of NLFK (feline kidney) cells (natural protein)” gave a PLA foci/nucleus (PLA foci/nucleus) of 6.5. “SSRP1 of NLFK (feline kidney) cells (natural protein)” showed a PLA foci/nucleus (PLA foci/nucleus) of 3.7. Substance “macro-H2A.1 of NLFK (feline kidney) cells (natural protein)” has a PLA foci/nucleus (PLA foci/nucleus) of 40.

These substances were tested against NS2-EGFP (canine parvovirus nonstructural protein 2 fused to EGFP) (canine parvovirus (CPV) type 2) (assay: proximity ligation; PLA (Duolink In Situ Orange Mouse/Rabbit) in noninfected HeLa cells transfected with NS2-EGFP, fixed 20 h after transfection; anti-GFP paired with an antibody against the host protein; nuclear PLA foci counted from 3D confocal data, n = 15).
“core histone macro-H2A.1 (from UniProt O75367 1-369) (natural protein)” gave a PLA foci/nucleus (PLA foci/nucleus) of 135. “nucleosome-remodeling helicase matrix-associated actin-dependent regulator of chromatin A5 (from UniProt O60264 1-1052) (natural protein)” showed a PLA foci/nucleus (PLA foci/nucleus) of 55. In the case of “structure specific recognition protein SSRP1 (FACT complex subunit) (from UniProt Q08945 1-709) (natural protein)”, the PLA foci/nucleus (PLA foci/nucleus) is reported as 7.5.
